The values that follow come from patent US20160324962A1, “COMPOSITIONS AND METHODS FOR TREATING SARCOMA” (MEDIMMUNE, LLC, priority 2013, published 2016).

One data set deals with SJCRH30. The data set can be described thus: Xenograft efficacy study in mice. The format is in vivo. As to conditions: SJCRH30 model. The source says:
(§1) Although proliferation of SK-ES-1 and SJCRH30 cells was inhibited by MEDI-573 in vitro in the absence of exogenous IGFs, the in vivo growth of these two models was not effected by MEDI-573 treatment.
(§2) For in vivo efficacy studies, five million sarcoma cells in 50% matrigel were inoculated subcutaneously into each female athymic nude mice. When tumors reach approximately 150-200 mm^3, mice were randomly assigned into groups (10 mice per group). MEDI-573 was administrated intraperitoneally twice per week at indicated doses. The dose regimen for AZD2014 was oral once every day, for rapamycin was intraperitoneal injection every 3 days. Tumor volumes were measured twice weekly with calipers. Tumor growth inhibition was calculated on the last day of study relative to the initial and final mean tumor volume of the control group.

In data set [1] the test system is SJSA-1 (an osteosarcoma model) xenografts. The data set can be described thus: Xenograft efficacy study in mice. The format is in vivo. As to conditions: SJSA-1 xenografts, MEDI-573 alone.
Description: as §1, §2

The next data set relates to KHOS xenograft model. The data set can be described thus: Xenograft efficacy study in mice. The format is in vivo. As to conditions: KHOS xenografts, MEDI-573 alone.
Description: as §1, §2

The test system of the next data set is SK-ES-1. Description: Xenograft efficacy study in mice. The class given is in vivo. As to conditions: SK-ES-1 model.
Description: as §1, §2

A short description of data set [2]: Body weight / tolerability in xenograft mice. The format is in vivo. As to conditions: MEDI-573 alone.
Description: as §1
The combination treatments were tolerated as no significant body weight loss was observed (FIG. 17B).

A further data set concerns pS6K. Description: In vivo mechanism of action study, immunoblot of tumors. As to conditions: RD-ES-bearing mice injected with human IGF-1/-2, MEDI-573 pretreatment. As to the method:
(§3) IGF-1/-2 injection did change the baseline level of p4EBP-1.
(§4) For in vivo mechanism of action (MOA) studies, when tumors reached approximately 400 mm^3, a single dose of MEDI-573 was given. Tumor and plasma samples were collected 4 hr after dosing to assess the effect of MEDI-573 on autocrine IGF signaling. In another set of mice, 6 hr after MEDI-573 dosing, human IGF-1 or IGF-2 was injected by tail-vein. Tumor and plasma samples were collected 15 min after IGFs injection to assess the effect of MEDI-573 on IGF-1/-2 induced signaling.
In general terms: In western blotting, separated proteins are transferred to a membrane and probed.

Another data set relates to SJSA-1 cells. The data set can be described thus: IGF-induced proliferation (CTG). The format is cell-based. As to the method: To access the effect of MEDI-573 on IGF-Induced proliferation, MEDI-573 or isotype control, was added to the cells for 30 minutes at 37° C. IGF-1 or IGF-2 was then added to the appropriate wells and incubated for 3 days. Proliferation was quantified using the CTG reagent.

Another data set concerns the target T1, human IGF-1 (Homo sapiens, UniProt P05019).
T1 construct: purchased R&D Systems (Minneapolis, Minn.)
Description: IGF levels in tumor and plasma after injection of human IGF. The format is in vivo, mice. As to conditions: RD-ES tumor lysates and plasma, intraperitoneal pretreatment for 6 hours, 15 min after IGF-1 injection. The protocol:
(§5) Thus, human IGF-1 and IGF-2 (IGF-1/-2) were injected into mice in an attempt to understand the role of IGF ligands in driving tumor growth when delivered by endocrine or paracrine secretion, and the effect of MEDI-573 in inhibiting this function. Fifteen minutes after IGF-1 or IGF-2 injection, high levels of IGF-1 or IGF-2 were detected both in RD-ES tumor and plasma.
as §4

Another data set addresses T2, human IGF-2 (Homo sapiens, UniProt P01344).
T2 construct: purchased R&D Systems (Minneapolis, Minn.)
Described as above. The format is in vivo, mice. As to conditions: RD-ES tumor lysates and plasma, intraperitoneal pretreatment for 6 hours, 15 min after IGF-2 injection. The protocol:
as §5, §4

The target of another data set is T3, IGF-1 in RD-ES tumors (Homo sapiens, UniProt P05019).
T3 construct: endogenous in cells; host or cells: RD-ES (Ewing's sarcoma) xenograft tumors in athymic nude mice
T3 sequence (P05019 49-118): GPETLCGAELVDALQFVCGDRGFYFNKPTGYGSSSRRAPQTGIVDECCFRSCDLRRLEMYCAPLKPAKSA
The data set can be described thus: Free IGF ligands in xenograft tumors (ELISA). The class given is in vivo, mice. As to conditions: different amounts of MEDI-573. As to the method:
Free IGF ligands were measured in xenograft tumors in untreated mice and in mice treated with different amounts of MEDI-573. […] Despite KHOS cells being unresponsive to IGF-1 and/or IGF-2 stimulation, IGF-2 levels were examined in a KHOS/NP model.
Sarcoma cell lines were purchased from American type Culture Collection (Manassas, Va.). CellTiter-Glo reagents were obtained from Promega (Madison, Wis.). Whole cell lysate kits for pIGF-1R, pIR-A, and pAKT were purchased from Meso Scale Discovery (MSD; Rockville, Md.). ELISA kits for total IGF-1 and IGF-1R were purchased from R&D Systems (Minneapolis, Minn.). ELISA kits for total IGF-2 were purchased from Insight Genomics (Falls Church, Va.). An ELISA kit for detecting free IGF-1 and IGF-2 was developed in house. Human IGF-1 and IGF-2 were obtained from R&D Systems (Minneapolis, Minn.). Antibodies for detecting phospho-AKT, phospho-4EBP1, phospho-S6K, and GAPDH were from Cell Signaling Technology (Beverly, Mass.).
For orientation: In an ELISA, binding on a coated surface is turned into a signal by an enzyme label.

For the next data set, the system named is p4EBP1. Description: In vivo mechanism of action study, immunoblot of tumors. Set-up: species or system mice. As to the method: (§6) The in vivo effects of MEDI-573 on IGF signaling were also examined in sarcoma xenografts. To be consistent with in vitro experiments, in vivo pharmacodynamic studies were performed in two ways. First, the effect of MEDI-573 on signaling that was induced by IGF ligands, which were secreted by tumors in an autocrine manner, was examined. A single dose of MEDI-573 was given to mice bearing ˜400 mm^3 RD-ES, SJSA-1, or KHOS/NP tumors.
as §3, §4

In a further data set the test system is pAKT. Described as above. More on the design: species or system mice. The protocol:
as §6, §3, §4

The next data set concerns IGF 1R phosphorylation. The data set can be described thus: IGF-stimulated phosphorylation in engineered NIH-3T3 cell lines. The format is cell-based. As to conditions: NIH-3T3 cell lines expressing human IGF-1R and human IGF-1/-2. The text has this: MEDI 573 selectively binds to human insulin-like growth factor (hIGF)-I and hIGF-2 and […]. MEDI-573 targets the IGF-1 and IGF-2 ligands and thereby inhibits IGF-mediated signal transduction. […] Furthermore, MEDI-573 has potential to achieve this without perturbing glucose homeostasis, which has been an adverse effect observed with investigational agents that target IGF 1R. The results of in vitro studies have shown that MEDI-573 inhibited both IGF-1 and IGF-2-stimulated phosphorylation of IGF 1R and that of downstream signaling proteins including Akt and MAPK in a number of engineered mouse embryonic fibroblast NIH-3T3 cell lines transfected to express human IGF-1R and either human IGF-1/-2. Furthermore, MEDI-573 inhibited autocrine phosphorylation of these signaling molecules.

[3] abbreviates: RD-ES tumors ~400 mm^3, single dose, 4 hr after dosing.
[4] abbreviates: RD-ES-bearing mice injected with human IGF-1/-2, MEDI-573 pretreatment.

T1 sequence (P05019 49-118 limits assumed): as the sequence (P05019 49-118) above
T2 sequence (P01344 25-91 limits assumed): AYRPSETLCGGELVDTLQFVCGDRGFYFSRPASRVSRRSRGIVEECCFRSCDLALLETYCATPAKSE

B1: MEDI-573: fully human monoclonal IgG2 lambda antibody that binds IGF-2 with cross reactivity to IGF-1; hybridoma 7.159.2, ATCC PTA-7424 (antibody)
heavy: QVQLVQSGAEVKKPGASVKVSCKASGYTFTSYDINWVRQATGQGLEWMGWMNPNSGNTGYAQKFQGRVTMTRNTSISTAYMELSSLRSEDTAVYYCARDPYYYYYGMDVWGQGTTVTVSSASTKGPSVFPLAPCSRSTSESTAALGCLVKDYFPEPVTVSWNSGALTSGVHTFPAVLQSSGLYSLSSVVTVPSSNFGTQTYTCNVDHKPSNTKVDKTVERKCCVECPPCPAPPVAGPSVFLFPPKPKDTLMISRTPEVTCVVVDVSHEDPEVQFNWYVDGVEVHNAKTKPREEQFNSTFRVVSVLTVVHQDWLNGKEYKCKVSNKGLPAPIEKTISKTKGQPREPQVYTLPPSREEMTKNQVSLTCLVKGFYPSDIAVEWESNGQPENNYKTTPPMLDSDGSFFLYSKLTVDKSRWQQGNVFSCSVMHEALHNHYTQKSLSLSPGK
light: QSVLTQPPSVSAAPGQKVTISCSGSSSNIENNHVSWYQQLPGTAPKLLIYDNNKRPSGIPDRFSGSKSGTSATLGITGLQTGDEADYYCETWDTSLSAGRVFGGGTKLTVLGQPKAAPSVTLFPPSSEELQANKATLVCLISDFYPGAVTVAWKADSSPVKAGVETTTPSKQSNNKYAASSYLSLTPEQWKSHRSYSCQVTHEGSTVEKTVAPTECS
On to B1, for which the in vivo growth result with SJCRH30 and with SK-ES-1 was “not effected” throughout. In addition, the tumor growth inhibition result in data set [1] is “Comparable results”. The response in vivo result in the data set with KHOS xenograft model was “did not respond”. For the same molecule, in [2], the body weight entry was “no loss of body weight was observed”. Besides, in the data set with pS6K, the “IGF-induced pS6K in tumors” value is recorded as “dramatic reduction”. Besides, the “IGF-1 IC50 (μM)” value in the data set on SJSA-1 cells (SJSA-1 cells stimulated with IGF-1) is “No Induction”. Besides, the “IGF-2 IC50 (μM)” value with SJSA-1 cells (SJSA-1 cells stimulated with IGF-2) is given as “No Induction”. In addition, the “reduction of IGF-1 levels” value in the data set with human IGF-1 is “approximately 50%”. Moreover, the “reduction of IGF-2 levels” value in the data set with human IGF-2 is listed as “almost completely”. For the same molecule, the “free IGF-1 in tumors” value with IGF-1 in RD-ES tumors was “dose-dependent suppression”. The “phosphorylated p4EBP1 in tumors” value with p4EBP1 (KHOS/NP tumors, single dose) was “not in KHOS/NP tumors”; in the data set on p4EBP1 (setting [3]), “inhibited”. Moreover, the p4EBP-1 in tumors result with p4EBP1 (setting [4]) was “inhibited p4EBP-1 even below the baseline level”. Moreover, the “autophosphorylation of pAKT in tumors” value is on record as “not in KHOS/NP tumors” in the data set with pAKT (KHOS/NP tumors, single dose) and “inhibited autophosphorylation” in the data set with pAKT (setting [3]). Moreover, the “IGF-induced pAKT in tumors” value with pAKT (setting [4]) is “dramatic reduction”. Also, the “IGF-1 and IGF-2-stimulated phosphorylation of IGF 1R” value in the data set on IGF 1R phosphorylation is listed as “inhibited”.
